B1: target 1 C7A,U8C (mixed)
RNA 1: CACCCGUGCAAAAAUGCAGGGGUCUAAAACUGAGCGGAUAACCUCUCUAUGG
RNA 2: GGGAAUGGAUCCACAUCUACGAAUUCGUACCAUAGAGAGGUUACACGCUCACCGAGAUCGGAAGAGCACACGU
B2: target 1 insU 3' of 18,insU 3' of 5 (mixed)
RNA 1: CACCCGUGCAAAAAUGCAGGGGUCUAAAACUGAGCGGAUAACCUCUCUAUGG
RNA 2: GGGAAUGGAUCCACAUCUACGAAUUCGUACCAUAUGAGAGGUUAUCCGUCUCACCGAGAUCGGAAGAGCACACGU
B3: target 1 insA 3' of 10,insU 3' of 2 (mixed)
RNA 1: CACCCGUGCAAAAAUGCAGGGGUCUAAAACUGAGCGGAUAACCUCUCUAUGG
RNA 2: GGGAAUGGAUCCACAUCUACGAAUUCGUACCAUAGAGAGGUUAAUCCGCUCUACCGAGAUCGGAAGAGCACACGU
B4: target 1 insG 3' of 14,insG 3' of 3 (mixed)
RNA 1: CACCCGUGCAAAAAUGCAGGGGUCUAAAACUGAGCGGAUAACCUCUCUAUGG
RNA 2: GGGAAUGGAUCCACAUCUACGAAUUCGUACCAUAGAGAGGGUUAUCCGCUGCACCGAGAUCGGAAGAGCACACGU
B5: target 1 insG 3' of 10,insG 3' of 3 (mixed)
RNA 1: CACCCGUGCAAAAAUGCAGGGGUCUAAAACUGAGCGGAUAACCUCUCUAUGG
RNA 2: GGGAAUGGAUCCACAUCUACGAAUUCGUACCAUAGAGAGGUUGAUCCGCUGCACCGAGAUCGGAAGAGCACACGU
B6: target 1 A1G,A18G (mixed)
RNA 1: CACCCGUGCAAAAAUGCAGGGGUCUAAAACUGAGCGGAUAACCUCUCUAUGG
RNA 2: GGGAAUGGAUCCACAUCUACGAAUUCGUACCAUGGAGAGGUUAUCCGCUCGCCGAGAUCGGAAGAGCACACGU
B7: target 1 insG 3' of 14,insC 3' of 1 (mixed)
RNA 1: CACCCGUGCAAAAAUGCAGGGGUCUAAAACUGAGCGGAUAACCUCUCUAUGG
RNA 2: GGGAAUGGAUCCACAUCUACGAAUUCGUACCAUAGAGAGGGUUAUCCGCUCACCCGAGAUCGGAAGAGCACACGU
B8: target 1 C2A,U10A (mixed)
RNA 1: CACCCGUGCAAAAAUGCAGGGGUCUAAAACUGAGCGGAUAACCUCUCUAUGG
RNA 2: GGGAAUGGAUCCACAUCUACGAAUUCGUACCAUAGAGAGGUAAUCCGCUAACCGAGAUCGGAAGAGCACACGU
B9: target 1 insA 3' of 12,insG 3' of 3 (mixed)
RNA 1: CACCCGUGCAAAAAUGCAGGGGUCUAAAACUGAGCGGAUAACCUCUCUAUGG
RNA 2: GGGAAUGGAUCCACAUCUACGAAUUCGUACCAUAGAGAGGAUUAUCCGCUGCACCGAGAUCGGAAGAGCACACGU
B10: target 1 insG 3' of 11,insG 3' of 1 (mixed)
RNA 1: CACCCGUGCAAAAAUGCAGGGGUCUAAAACUGAGCGGAUAACCUCUCUAUGG
RNA 2: GGGAAUGGAUCCACAUCUACGAAUUCGUACCAUAGAGAGGUGUAUCCGCUCAGCCGAGAUCGGAAGAGCACACGU
B11: target 1 insG 3' of 11,insA 3' of 2 (mixed)
RNA 1: CACCCGUGCAAAAAUGCAGGGGUCUAAAACUGAGCGGAUAACCUCUCUAUGG
RNA 2: GGGAAUGGAUCCACAUCUACGAAUUCGUACCAUAGAGAGGUGUAUCCGCUCAACCGAGAUCGGAAGAGCACACGU
B12: target 1 insC 3' of 5,insG 3' of 3 (mixed)
RNA 1: CACCCGUGCAAAAAUGCAGGGGUCUAAAACUGAGCGGAUAACCUCUCUAUGG
RNA 2: GGGAAUGGAUCCACAUCUACGAAUUCGUACCAUAGAGAGGUUAUCCGCCUGCACCGAGAUCGGAAGAGCACACGU
B13: target 1 insG 3' of 14,insA 3' of 2 (mixed)
RNA 1: CACCCGUGCAAAAAUGCAGGGGUCUAAAACUGAGCGGAUAACCUCUCUAUGG
RNA 2: GGGAAUGGAUCCACAUCUACGAAUUCGUACCAUAGAGAGGGUUAUCCGCUCAACCGAGAUCGGAAGAGCACACGU
B14: target 1 U19C,C22A (mixed)
RNA 1: CACCCGUGCAAAAAUGCAGGGGUCUAAAACUGAGCGGAUAACCUCUCUAUGG
RNA 2: GGGAAUGGAUCCACAUCUACGAAUUCGUAACACAGAGAGGUUAUCCGCUCACCGAGAUCGGAAGAGCACACGU
B15: target 1 U3A,A20U (mixed)
RNA 1: CACCCGUGCAAAAAUGCAGGGGUCUAAAACUGAGCGGAUAACCUCUCUAUGG
RNA 2: GGGAAUGGAUCCACAUCUACGAAUUCGUACCUUAGAGAGGUUAUCCGCACACCGAGAUCGGAAGAGCACACGU
B16: target 1 C2G,G15U (mixed)
RNA 1: CACCCGUGCAAAAAUGCAGGGGUCUAAAACUGAGCGGAUAACCUCUCUAUGG
RNA 2: GGGAAUGGAUCCACAUCUACGAAUUCGUACCAUAGAUAGGUUAUCCGCUGACCGAGAUCGGAAGAGCACACGU
B17: target 1 U3A,G12A (mixed)
RNA 1: CACCCGUGCAAAAAUGCAGGGGUCUAAAACUGAGCGGAUAACCUCUCUAUGG
RNA 2: GGGAAUGGAUCCACAUCUACGAAUUCGUACCAUAGAGAGAUUAUCCGCACACCGAGAUCGGAAGAGCACACGU
B18: target 1 insU 3' of 17,insC 3' of 15 (mixed)
RNA 1: CACCCGUGCAAAAAUGCAGGGGUCUAAAACUGAGCGGAUAACCUCUCUAUGG
RNA 2: GGGAAUGGAUCCACAUCUACGAAUUCGUACCAUAGUAGCAGGUUAUCCGCUCACCGAGAUCGGAAGAGCACACGU
B19: target 1 C6U,G15U (mixed)
RNA 1: CACCCGUGCAAAAAUGCAGGGGUCUAAAACUGAGCGGAUAACCUCUCUAUGG
RNA 2: GGGAAUGGAUCCACAUCUACGAAUUCGUACCAUAGAUAGGUUAUCUGCUCACCGAGAUCGGAAGAGCACACGU
B20: target 1 insG 3' of 19,insU 3' of 15 (mixed)
RNA 1: CACCCGUGCAAAAAUGCAGGGGUCUAAAACUGAGCGGAUAACCUCUCUAUGG
RNA 2: GGGAAUGGAUCCACAUCUACGAAUUCGUACCAUGAGAGUAGGUUAUCCGCUCACCGAGAUCGGAAGAGCACACGU
B21: target 1 A18U,C21U (mixed)
RNA 1: CACCCGUGCAAAAAUGCAGGGGUCUAAAACUGAGCGGAUAACCUCUCUAUGG
RNA 2: GGGAAUGGAUCCACAUCUACGAAUUCGUACUAUUGAGAGGUUAUCCGCUCACCGAGAUCGGAAGAGCACACGU
B22: target 1 G12A,G15U (mixed)
RNA 1: CACCCGUGCAAAAAUGCAGGGGUCUAAAACUGAGCGGAUAACCUCUCUAUGG
RNA 2: GGGAAUGGAUCCACAUCUACGAAUUCGUACCAUAGAUAGAUUAUCCGCUCACCGAGAUCGGAAGAGCACACGU
B23: target 1 insG 3' of 14,insG 3' of 1 (mixed)
RNA 1: CACCCGUGCAAAAAUGCAGGGGUCUAAAACUGAGCGGAUAACCUCUCUAUGG
RNA 2: GGGAAUGGAUCCACAUCUACGAAUUCGUACCAUAGAGAGGGUUAUCCGCUCAGCCGAGAUCGGAAGAGCACACGU
B24: target 1 insC 3' of 12,insU 3' of 9 (mixed)
RNA 1: CACCCGUGCAAAAAUGCAGGGGUCUAAAACUGAGCGGAUAACCUCUCUAUGG
RNA 2: GGGAAUGGAUCCACAUCUACGAAUUCGUACCAUAGAGAGGCUUAUUCCGCUCACCGAGAUCGGAAGAGCACACGU
B25: target 1 insU 3' of 15,insG 3' of 2 (mixed)
RNA 1: CACCCGUGCAAAAAUGCAGGGGUCUAAAACUGAGCGGAUAACCUCUCUAUGG
RNA 2: GGGAAUGGAUCCACAUCUACGAAUUCGUACCAUAGAGUAGGUUAUCCGCUCGACCGAGAUCGGAAGAGCACACGU
B26: target 1 G5C,G15C (mixed)
RNA 1: CACCCGUGCAAAAAUGCAGGGGUCUAAAACUGAGCGGAUAACCUCUCUAUGG
RNA 2: GGGAAUGGAUCCACAUCUACGAAUUCGUACCAUAGACAGGUUAUCCCCUCACCGAGAUCGGAAGAGCACACGU
B27: target 1 insG 3' of 11,insC 3' of 1 (mixed)
RNA 1: CACCCGUGCAAAAAUGCAGGGGUCUAAAACUGAGCGGAUAACCUCUCUAUGG
RNA 2: GGGAAUGGAUCCACAUCUACGAAUUCGUACCAUAGAGAGGUGUAUCCGCUCACCCGAGAUCGGAAGAGCACACGU

The data set addresses T1, EsCas13d, nuclease-dead (Eubacterium siraeum, UniProt B0MS50, R295A;H300A;R849A;H854A).
T1 sequence: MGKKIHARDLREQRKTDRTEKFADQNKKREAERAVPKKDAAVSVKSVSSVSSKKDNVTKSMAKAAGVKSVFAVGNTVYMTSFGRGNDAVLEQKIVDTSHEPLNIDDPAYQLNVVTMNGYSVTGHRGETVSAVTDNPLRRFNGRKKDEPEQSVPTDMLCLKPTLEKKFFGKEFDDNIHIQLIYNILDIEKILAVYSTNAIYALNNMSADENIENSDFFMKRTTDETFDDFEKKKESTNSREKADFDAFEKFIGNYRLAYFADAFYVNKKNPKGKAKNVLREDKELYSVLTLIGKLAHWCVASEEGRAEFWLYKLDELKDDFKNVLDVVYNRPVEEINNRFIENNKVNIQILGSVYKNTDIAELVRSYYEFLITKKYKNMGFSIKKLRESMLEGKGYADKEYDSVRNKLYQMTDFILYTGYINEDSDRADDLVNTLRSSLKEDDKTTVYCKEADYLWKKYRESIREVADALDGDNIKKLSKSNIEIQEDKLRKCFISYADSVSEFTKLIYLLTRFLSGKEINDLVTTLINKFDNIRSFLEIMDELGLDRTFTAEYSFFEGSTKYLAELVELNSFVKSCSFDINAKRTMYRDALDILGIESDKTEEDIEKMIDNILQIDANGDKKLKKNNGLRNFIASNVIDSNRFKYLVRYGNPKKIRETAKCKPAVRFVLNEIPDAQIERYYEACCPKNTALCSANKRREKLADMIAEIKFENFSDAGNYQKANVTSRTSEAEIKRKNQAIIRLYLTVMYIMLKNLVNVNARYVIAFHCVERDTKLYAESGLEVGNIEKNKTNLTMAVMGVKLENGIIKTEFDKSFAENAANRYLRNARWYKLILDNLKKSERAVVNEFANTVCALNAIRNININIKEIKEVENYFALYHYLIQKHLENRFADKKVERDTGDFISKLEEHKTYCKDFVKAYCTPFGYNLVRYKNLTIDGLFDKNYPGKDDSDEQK
The data set is described as follows: crRNA (strand 1, pre-loaded); Mg2+; 40 mM Tris-HCl pH 7.5, 150 mM NaCl, 6 mM MgCl2, 1 mM DTT, 0.1% Tween-20, 0.2 mg/ml BSA; 25 C; 10 min per concentration, then washed. The note with it: tags: His6-TwinStrep-SUMO cleaved; N-terminal SNAP kept (SNAP-Surface 488); label: 3' end held by stalled T7 RNA polymerase.
As usually defined, the Kd is the equilibrium constant for the complex coming apart. Regarding B1, binding was put at a Kd of 9 ± 0.4 nM.

The molecule B2 registered a Kd of 48 ± 5 nM. This Kd lies about 5.3-fold higher than the previous one.

Turning to B3, binding was characterised by a dissociation constant (Kd) of 13.8 ± 0.7 nM. The figure for B4 is 7.9 ± 0.4 nM; for B5 it is 28.4 ± 2.8 nM; for B6 it is 74 ± 21 nM. In the case of B7 it was 10.4 ± 0.4 nM; in that of B8, 13.9 ± 0.8 nM. The figure for B9 is 18.7 ± 1.6 nM; for B10 it is 34 ± 4 nM; for B11 it is 49 ± 6 nM. The molecule B12 showed a Kd of 24.9 ± 2.3 nM. This Kd is about 2-fold lower than that of the molecule before. In the case of B13 it was 13.3 ± 1.6 nM. The figure for B14 is 43 ± 5 nM. In the case of B15 it was 44 ± 4 nM; in that of B16, 33 ± 13 nM; in that of B17, 4.12 ± 0.33 nM.

Turning to B18, the Kd amounted to 26.1 ± 1.8 nM. Against the preceding molecule, the Kd is about 6.3-fold higher. In the case of B19 it was 32.9 ± 1.9 nM.

Consider B20, for which binding was put at a Kd of 60 ± 9 nM. The figure for B21 is 6.5 ± 0.32 nM; for B22 it is 18.7 ± 2.5 nM. B23 yielded a Kd of 11.3 ± 0.7 nM. The figure for B24 is 14 ± 2.2 nM; for B25 it is 9.7 ± 0.7 nM; for B26 it is 38 ± 5 nM. In turn, B27 registered a Kd of 35 ± 6 nM.

For the origin of these results see article PMC10786891, “Massively parallel profiling of RNA-targeting CRISPR-Cas13d”.
